{"source": "paper PMC2780581", "about": "(Biochemistry, 2008)", "proteins": {"B1": {"name": "(S)-2-hydroxypropylphosphonic acid epoxidase from Pseudomonas syringae (enzyme, Pseudomonas syringae PB-5123, UniProt Q9JN69 1-190, looked up)", "chain": "MDVRTLAVGKAHLEALLATRKMTLEHLQDVRHDATQVYFDGLEHLQNVAQYLAIPLSEFFVGQTQSDLDDGVKIARRNGGFKREEIRGGVHYYTYEHLVTTNQDPGLMALRLDLHSDDEQPLRLNGGHGSREIVYVTRGAVRVRWVGDNDELKEDVLNEGDSIFILPNVPHSFTNHVGGAKSEIIAINYG", "modifications": "Tyr95 highly likely post-translationally hydroxylated to DOPA"}}, "target": "the molecule itself", "assay": "SEC", "data": [{"protein": "B1", "values": [{"measurement": "stoichiometry N", "result": 3}]}]}
